Reference: article PMC2952653 (Journal of molecular biology, 2010)

Key:
[1] = target: MEF2A (2-95), MADS-box/MEF2 domain (Homo sapiens, UniProt Q02078 2-95); test: X-ray crystallography
[2] = target: the molecule itself; test: multiangle light scattering

B1: MEF2 site 14mer (crystal) (dsDNA)
DNA 1: AACTATTTATAAGA
DNA 2: TTCTTATAAATAGT
binding result [1]: binds

B2: MADS-box/MEF2 domain of human MEF2A (residues 2-95) (domain or fragment, UniProt Q02078 2-95, looked up)
chain: GRKKIQITRIMDERNRQVTFTKRKFGLMKKAYELSVLCDCEIALIIFNSSNKLFQYASTDMDKVLLKYTEYNEPHESRTNSDIVEALNKKEHRG
stoichiometry N [2]: 2
